Measured values reported in article doi:10.1101/2022.01.31.478465 (bioRxiv, 2022).

Target: T1, AtPRP40b, recombinant (A. thaliana, UniProt F4JCC1 1-992)
T1 sequence: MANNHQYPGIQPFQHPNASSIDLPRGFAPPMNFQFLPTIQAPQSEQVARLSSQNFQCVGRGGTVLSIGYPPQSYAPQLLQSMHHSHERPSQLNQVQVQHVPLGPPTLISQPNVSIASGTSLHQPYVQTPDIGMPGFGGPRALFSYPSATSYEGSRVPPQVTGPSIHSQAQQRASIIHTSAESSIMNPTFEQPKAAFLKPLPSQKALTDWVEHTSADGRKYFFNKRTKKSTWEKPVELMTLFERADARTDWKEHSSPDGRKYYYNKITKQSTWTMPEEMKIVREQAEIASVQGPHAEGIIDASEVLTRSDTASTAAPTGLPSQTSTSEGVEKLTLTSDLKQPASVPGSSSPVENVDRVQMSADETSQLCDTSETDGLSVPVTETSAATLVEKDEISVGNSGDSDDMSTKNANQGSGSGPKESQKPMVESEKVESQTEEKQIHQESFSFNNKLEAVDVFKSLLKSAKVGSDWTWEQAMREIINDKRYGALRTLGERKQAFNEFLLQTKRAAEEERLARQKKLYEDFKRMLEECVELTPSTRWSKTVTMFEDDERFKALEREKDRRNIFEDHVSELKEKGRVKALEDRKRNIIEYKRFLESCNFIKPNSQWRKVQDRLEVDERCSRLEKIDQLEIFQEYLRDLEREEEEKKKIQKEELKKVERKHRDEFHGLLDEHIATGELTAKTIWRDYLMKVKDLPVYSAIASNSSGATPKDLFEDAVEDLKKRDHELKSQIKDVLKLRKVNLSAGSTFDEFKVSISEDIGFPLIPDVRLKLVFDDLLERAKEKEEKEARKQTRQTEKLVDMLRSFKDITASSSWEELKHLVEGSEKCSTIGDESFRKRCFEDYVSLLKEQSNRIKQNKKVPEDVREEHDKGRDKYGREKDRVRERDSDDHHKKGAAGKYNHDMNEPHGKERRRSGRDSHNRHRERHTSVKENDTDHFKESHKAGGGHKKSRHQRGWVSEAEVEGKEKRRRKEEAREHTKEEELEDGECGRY
Assay: pull-down

B1: SERRATE (SE), full length, recombinant (natural protein, A. thaliana, UniProt Q9ZVD0 1-720, looked up)
chain: MADVNLPPSDSVDNRLPEKSTSSSPPPPPPSSSLPQQEQEQDQQQLPLRRERDSRERRDERDIERPPPNRRERDRSPLPPPRRDYKRRPSLSPPPPYRDRRHSPPQRRSPPQKRYRRDDNGYDGRRGSPRGGYGPPDRRFGYDHGGGYDREMGGRPGYGDERPHGRFMGRYQDWEGGRGGYGDASNSGNPQRDGLMSYKQFIQELEDDILPSEAERRYQEYKSEYITTQKRAFFNTHKEEDWLKNKYHPTNLLSVIERRNDLAQKVAKDFLLDLQSGTLDLGPAVTALNKSGRTSEPNSEDEAAGVGKRKRHGMGGAKENELLSAAPKAPSFTSDPKRILTDVEQTQALVRKLDSEKKIEENVLQGSETEKSGREKLHSGSTGPVVIIRGLTSVKGLEGVELLDTLVTYLWRVHGLDYYGKVETNEAKGLRHVRAEGKVSDAKGDENESKFDSHWQERLKGQDPLEVMAAKEKIDAAATEALDPHVRKIRDEKYGWKYGCGAKGCTKLFHAAEFVYKHLKLKHTELVTELTTKVREELYFQNYMNDPNAPGGQPATQQSGPRDRPIRRKPSMENRLRDDRGGRRERDGRANGNDRNDRSEDQQRGDNDGGNPGEVGYDAFGGQGGVHVPPFLSDINPPPMLMPVPGAGPLGPFVPAPPEVAMQMFRDPSGPNPPFEGSGRGGPAPFLLSPAFRQDPRRLRSYQDLDAPEEEVTVIDYRSL
binding result: binds
